The values below come from patent US5925558.

For assay [1], the target named is GFP phosphorylation mutant 155KRKSGI (Aequorea victoria). The following applies: scale: relative rate.
In assay [2] the target is GFP phosphorylation mutant 172RRGSV (Aequorea victoria). The following applies: scale: relative rate.
The target of assay [3] is GFP phosphorylation mutant 214KRDSM (Aequorea victoria). The following applies: scale: relative rate.
The target in assay [4] is GFP phosphorylation mutant 25RRFSV (Aequorea victoria). The following applies: scale: relative rate.
The target in assay [5] is GFP phosphorylation mutant 68RRFSA (Aequorea victoria). The following applies: scale: relative rate.
The target in assay [6] is GFP N-terminal phosphorylation mutant 1MRKGSCLF (Aequorea victoria). The following applies: scale: relative rate.
In assay [7] the target is GFP N-terminal phosphorylation mutant 1MRKGSLLF (Aequorea victoria). The following applies: scale: relative rate.
The target in assay [8] is GFP N-terminal phosphorylation mutant 1MRRDSCLF (Aequorea victoria). The following applies: scale: relative rate.
Assay [9] addresses GFP N-terminal phosphorylation mutant 1MRRESLLF (Aequorea victoria). The following applies: scale: relative rate.
The target of assay [10] is GFP N-terminal phosphorylation mutant 1MSKRRDSL (Aequorea victoria). The following applies: scale: relative rate.
Assay [11] addresses GFP N-terminal phosphorylation mutant 1MSRRDSCF (Aequorea victoria). The following applies: scale: relative rate.
In assay [12] the target is wild-type Aequorea green fluorescent protein (Aequorea victoria). The following applies: scale: relative rate.
Assay [13] has as its target GFP N-terminal phosphorylation mutant -1… (Aequorea victoria).
Assay [14] deals with GFP N-terminal phosphorylation mutant -2… (Aequorea victoria).
Assay [15] addresses GFP N-terminal phosphorylation mutant -3… (Aequorea victoria).
In assay [16] the target is GFP N-terminal phosphorylation mutant 1MRRRRSII (Aequorea victoria).
The target of assay [17] is GFP N-terminal phosphorylation mutant 1MSRRRRSI (Aequorea victoria).

Take “protein kinase A catalytic subunit (enzyme)”: the Relative rates of phosphorylation (32P incorporation) was found to be 2.5 in [1]; 1.57 in [2]; 1.88 in [3]; 1.75 in assay [4]; 0.6 in assay [5]; 5.1 in assay [6]. For the same substance, the Relative rates of phosphorylation (32P incorporation) worked out at 1.6 in assay [7]; 3.7 in [8]; 3 in assay [9]; 5.5 in assay [10]; 2.1 in [11]; 1 in [12]. Also, the % Change in fluorescence upon phosphorylation in assay [13] stood at 43%; in [14], 15%; in assay [15] it was 70%; in assay [16], 70%; in [17], 40%.
